Data on 10 molecules can be found in patent US20130287781A1 (GlaxoSmithKline, published 2013).

Residue numbers refer to the chain shown, from its start. Names and notes keep the numbering of the source. Where no end group is shown, it is not given here. The star is where a group is joined. Biotin = O=C1N[C@H]2[C@H](CS[C@H]2CCCCC(=O)*)N1

Test [1] deals with T1, H28L16.
T1 construct: IgG1 (L235A, G237A) / kappa; CAMPATH-1H signal (1-19) left out; also called H28FL L16FL; NOGO H28L16
The experiment in a line: competition ELISA: H28L16 captured on anti-human IgG, peptide pre-mixed with GST-human NOGO-A56 (1 ug/ml), bound NOGO detected with anti-GST-HRP.
Experimental: The plates were rinsed 3 times with TBS containing 0.05% Tween (TBST) then blocked with 1% BSA in TBST at room temperature for 1 hour. […] The plates were washed 3 times with TBST. Peptides (from 0 to 100 g/ml) and GST-human NOGO-A56 at a concentration of 1 ug/ml (diluted in 1% BSA in TBST) were pre-mixed prior to addition into the wells and incubated at room temperature for 1 hour. The plates were washed 3 times with TBST then incubated for 1 hour with rabbit anti-GST peroxidase conjugate (Sigma, #A7340, 1:2000, diluted in 1% BSA in TBST) for 1 hour. The plates were washed 3 times with TBST and then incubated with 50 l OPD peroxidase substrate (Sigma) per well for 10 minutes. The colour reaction was stopped by the addition of 25 l concentrated H₂SO₄. Absorbance at 490 nm was measured using a plate reader.

The target in test [2] is T2, GST-human NOGO-A56 (human).
T2 construct: Expressed in E. coli BL21 from pGEX-6P1 and purified on glutathione-sepharose; the GST tag is part of the protein in the assays; also called GST-Nogo-A 5+6; GST Nogo-A 5 + 6
The experiment in a line: SPR (Biacore) off-rate ranking on GST-human NOGO-A56 chip, one experiment. (SPR reads the build-up and loss of mass on a sensor chip optically.)
Experimental: (§1) GST-human NOGO-A56 was immobilised to a CM5 chip by primary amine coupling using the Biacore Wizard program designed for targeted immobilisation levels. The CM5 sensor surface was activated by passing a solution of 50 mM N-hydroxy-succinimide (NHS) and 200 mM N-ethyl-N′-dimethylaminopropyl carbonide (EDC). Then GST-human NOGO-A56 in sodium acetate buffer, pH5.0 or pH 4.5, was passed over the chip and immobilised. After immobilisation was complete any still activated esters were blocked by an injection of 1M ethanolamine hydrochloride, pH8.5.
The GST-human NOGO-A56 chip was prepared as for kinetic analysis. Cell supernatants where taken directly from transient transfections of CHO-K1 cells. These were passed directly over the sensor surface and the interaction measured. A mock transfected cell supernatant was used for double referencing to remove any artefacts due to the tissue culture media. All runs were referenced against a blanked sensor surface (one that had been activated and blocked as described earlier but had no addition of ligand). Analysis of binding was carried out using the BIAevaluation kinetic analysis software version 4.1.

Test [3] has as its target T2, GST-human NOGO-A56. The experiment in a line: direct ELISA, GST-human NOGO-A56 coated at 1.0 mcg/ml, purified antibody, OD490. In general terms: ELISA stands for enzyme-linked immunosorbent assay.
Experimental: (§2) Wells were rinsed once with TBS+0.05% Tween (TBST) then incubated with 2% BSA in TBST to block non-specific binding sites at room temperature for 1 hour. Antibodies were diluted in TBST+2% BSA to 10 μg/ml and ½ dilutions made from this. Antibodies were added to wells in duplicate and incubated at room temperature for 1 hour. […] The wells were washed three times with TBST and then incubated with 100 μl OPD peroxidase substrate (Sigma) per well for 10 minutes. The colour reaction was stopped by the addition of 25 μl concentrated H₂SO₄. Optical density at 490 nm was measured using a plate reader. Background values read from wells with no antibody were subtracted.
The target of test [4] is T2, GST-human NOGO-A56. The description is as above. The source holds these as a separate data set.
Experimental: as §2
Test [5] addresses T2, GST-human NOGO-A56. The experiment in a line: SPR (Biacore), NOGO amine-coupled to CM5, antibody flowed over.
Experimental: as §1
For test [6], the target named is T2, GST-human NOGO-A56. The experiment in a line: SPR (Biacore) off-rate on NOGO chip, panel of H6FL CDR H3 variants with L13FL.
The target in test [7] is T2, GST-human NOGO-A56. The experiment in a line: SPR (Biacore T100), antigen amine-coupled to CM5, antibody 0.125-8 nM; mean of six runs in duplicate (SD in brackets).
Text: In the first approach, the recombinant Nogo-A was coupled to the surface of the chip and anti-Nogo-A antibodies passed over this surface. In the second approach, Protein A was used to capture the antibody onto the surface of the chip over which the recombinant GST-human Nogo-A56 was passed.
The antigen was bound to the CM5 chip by primary amine coupling. […] The values show the mean and standard deviation (in brackets) of six independent runs carried out in duplicate. Each completed data set was analysed independently prior to the calculation of mean and standard deviation.
Test [8] addresses T2, GST-human NOGO-A56. The experiment in a line: competition ELISA on coated GST-Nogo-A 5+6; competitor 2A10 pre-mixed, bound 2A10 detected with anti-mouse IgG-HRP.
The target of test [9] is T2, GST-human NOGO-A56. The experiment in a line: direct ELISA, GST-Nogo-A 5+6 coated at 1.0 mcg/ml, anti-human IgG-HRP, Abs490.
Experimental: as §2
The target of test [10] is T2, GST-human NOGO-A56. The experiment in a line: reverse format ELISA: antibody captured on anti-human IgG, GST-Nogo-A 5+6 detected with anti-GST-HRP; the x axis is the antibody concentration.
In test [11] the target is T2, GST-human NOGO-A56. As to the kind of experiment: SPR (Biacore), GST-human NOGO-A56 amine-coupled to CM5, antibody flowed over, 25 C.
Experimental: as §1
(§3) The anti-NOGO mAbs were diluted down in HBS-EP (10 mM HEPES, pH 7.4, 150 mM NaCl, 3 mM EDTA, and 0.005% P-20 surfactant) for the BIAcore 3000 or HBS-EP+ (10 mM HEPES, pH 7.4, 150 mM NaCl, 3 mM EDTA, and 0.05% P-20 surfactant) in the case of the T100 and binding studies were carried out at range of defined antibody concentrations. All runs were referenced against a blanked sensor surface (one that had been activated and blocked as described earlier but had no addition of ligand). Analysis of binding was carried out using the BIAevaluation kinetic analysis software version 4.1 for the BIAcore 3000 and T100 kinetic analysis software version 1.0. […] Unless otherwise stated, the BIAcore experiments were performed at 25° C.
Test [12] concerns the target T2, GST-human NOGO-A56. As to the kind of experiment: SPR (Biacore), GST-human NOGO-A56 amine-coupled to CM5, antibody flowed over, 37 C.
Experimental: as §1, §3
Test [13] has as its target T2, GST-human NOGO-A56. The experiment in a line: SPR (Biacore), GST-human NOGO-A56 amine-coupled to CM5, antibody flowed over, 25 C. This is another data set of the same source.
Test [14] deals with T2, GST-human NOGO-A56. The experiment in a line: SPR (Biacore T100), reverse format: antibody captured by Protein A, GST Nogo-A 5+6 0.125-8 nM flowed over; mean (SD in brackets).
Text: Protein A was immobilised to approximately 4000RUs by primary amine and used to capture 200-300RUs of the sample antibodies. […] The values show the mean and standard deviation (in brackets) of three independent runs in duplicate. Each data set was independently analysed prior to the calculation of the mean and standard deviation.
Test [15] addresses T2, GST-human NOGO-A56. As to the kind of experiment: SPR (Biacore), GST-human NOGO-A56 amine-coupled to CM5, antibody flowed over, 25 C. This is another data set of the same source.
Experimental: as §1, §3
The target of test [16] is T3, Squirrel monkey NOGO (A56) plus GST tag (squirrel monkey).
T3 construct: also called GST-NOGO-A56 from squirrel monkey
As to the kind of experiment: direct ELISA on GST-NOGO-A56 from squirrel monkey, Abs490.

Test [17] addresses T4, Marmoset NOGO (A56) plus GST tag (marmoset).
T4 construct: also called GST-NOGO-A56 from marmoset
The experiment in a line: direct ELISA on GST-NOGO-A56 from marmoset, Abs490.

Test [18] addresses T5, Cynomolgus monkey NOGO (A56) plus GST tag (cynomolgus monkey).
T5 construct: also called cynomolgus Nogo-A; GST-NOGO-A56 from cynomolgus
As to the kind of experiment: direct ELISA on GST-NOGO-A56 from cynomolgus, Abs490.

In test [19] the target is T6, Rat NOGO (A56) plus GST tag (rat).
T6 construct: also called GST-NOGO-A56 from rat
The experiment in a line: direct ELISA on GST-NOGO-A56 from rat, Abs490.

In test [20] the target is T7, native human Nogo-A of IMR32 neuroblastoma cells (intracellular) (human, UniProt Q9NQC3 1-1192).
T7 construct: whole, on cells; Detected inside permeabilised, fixed cells (ER-resident), not on the cell surface; also called intracellular Nogo-A; native Nogo-A
T7 sequence (looked up): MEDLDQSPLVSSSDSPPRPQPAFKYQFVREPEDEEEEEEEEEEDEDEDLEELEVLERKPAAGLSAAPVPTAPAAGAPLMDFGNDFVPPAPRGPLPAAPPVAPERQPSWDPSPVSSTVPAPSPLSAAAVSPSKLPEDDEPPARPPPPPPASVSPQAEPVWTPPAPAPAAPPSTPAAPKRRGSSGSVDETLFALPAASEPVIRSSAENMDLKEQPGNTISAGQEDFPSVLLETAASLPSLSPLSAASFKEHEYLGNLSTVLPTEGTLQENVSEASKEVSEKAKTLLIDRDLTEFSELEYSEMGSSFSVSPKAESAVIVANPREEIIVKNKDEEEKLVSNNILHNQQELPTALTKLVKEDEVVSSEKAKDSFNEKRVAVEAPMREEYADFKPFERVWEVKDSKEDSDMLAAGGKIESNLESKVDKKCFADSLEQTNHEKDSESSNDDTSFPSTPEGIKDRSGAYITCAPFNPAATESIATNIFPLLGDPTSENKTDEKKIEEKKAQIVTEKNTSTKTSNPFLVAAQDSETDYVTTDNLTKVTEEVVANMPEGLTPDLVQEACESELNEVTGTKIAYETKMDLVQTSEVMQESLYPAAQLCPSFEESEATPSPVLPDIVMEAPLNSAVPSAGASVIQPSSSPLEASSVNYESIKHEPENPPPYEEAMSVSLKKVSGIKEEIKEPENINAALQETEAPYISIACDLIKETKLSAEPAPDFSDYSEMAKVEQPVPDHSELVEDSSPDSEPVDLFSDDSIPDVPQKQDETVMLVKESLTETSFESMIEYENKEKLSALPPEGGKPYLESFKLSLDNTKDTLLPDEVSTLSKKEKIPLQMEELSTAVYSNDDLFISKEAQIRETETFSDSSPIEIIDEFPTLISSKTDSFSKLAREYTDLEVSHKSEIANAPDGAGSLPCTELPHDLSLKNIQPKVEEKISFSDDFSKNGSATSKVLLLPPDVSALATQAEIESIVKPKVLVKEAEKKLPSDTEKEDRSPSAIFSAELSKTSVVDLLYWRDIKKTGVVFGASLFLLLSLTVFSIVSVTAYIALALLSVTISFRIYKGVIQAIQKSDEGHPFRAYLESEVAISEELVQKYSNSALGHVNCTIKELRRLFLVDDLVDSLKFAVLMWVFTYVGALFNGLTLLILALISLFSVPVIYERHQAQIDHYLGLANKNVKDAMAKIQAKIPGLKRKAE
The experiment in a line: flow cytometry on permeabilised, fixed IMR32 cells (intracellular Nogo-A), PE anti-human IgG, MFI. For orientation: In flow cytometry, cells or beads pass a laser one at a time.
Experimental: In the second assay, the ability of the humanised antibodies to bind native Nogo-A was assessed using a human neuroblastoma cell line—IMR32. This cell line is characterised by high intracellular/low cell surface levels of Nogo-A protein. In an attempt to increase the binding signal, the assay was set-up to detect intracellular Nogo-A (ER-resident). IMR32 cells were permeabilised and fixed prior to staining with the anti-Nogo-A humanised antibodies. Binding of the antibodies to Nogo-A was detected using an anti-human IgG-PE labelled secondary (Sigma, #P8047).

T1 sequence (light, as listed by the source): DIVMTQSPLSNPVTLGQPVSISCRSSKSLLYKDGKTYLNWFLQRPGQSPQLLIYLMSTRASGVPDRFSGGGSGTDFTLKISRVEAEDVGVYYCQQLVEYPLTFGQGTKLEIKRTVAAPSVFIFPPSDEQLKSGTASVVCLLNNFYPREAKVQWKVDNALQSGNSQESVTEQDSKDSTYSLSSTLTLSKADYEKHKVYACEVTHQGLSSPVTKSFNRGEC
T2 sequence (chain, as listed by the source limits assumed): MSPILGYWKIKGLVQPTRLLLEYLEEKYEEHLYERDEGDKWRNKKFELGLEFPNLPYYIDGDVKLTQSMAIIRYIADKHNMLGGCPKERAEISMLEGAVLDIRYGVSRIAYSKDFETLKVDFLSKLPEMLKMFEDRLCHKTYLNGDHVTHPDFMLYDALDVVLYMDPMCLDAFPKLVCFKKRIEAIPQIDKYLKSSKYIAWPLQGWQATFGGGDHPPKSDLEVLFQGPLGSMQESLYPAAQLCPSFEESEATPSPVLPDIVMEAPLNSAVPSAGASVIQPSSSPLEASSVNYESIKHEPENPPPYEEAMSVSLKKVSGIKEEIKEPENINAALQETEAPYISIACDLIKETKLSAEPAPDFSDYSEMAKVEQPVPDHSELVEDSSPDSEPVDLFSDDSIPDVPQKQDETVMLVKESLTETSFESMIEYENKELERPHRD
T3 sequence (chain, as listed by the source limits assumed): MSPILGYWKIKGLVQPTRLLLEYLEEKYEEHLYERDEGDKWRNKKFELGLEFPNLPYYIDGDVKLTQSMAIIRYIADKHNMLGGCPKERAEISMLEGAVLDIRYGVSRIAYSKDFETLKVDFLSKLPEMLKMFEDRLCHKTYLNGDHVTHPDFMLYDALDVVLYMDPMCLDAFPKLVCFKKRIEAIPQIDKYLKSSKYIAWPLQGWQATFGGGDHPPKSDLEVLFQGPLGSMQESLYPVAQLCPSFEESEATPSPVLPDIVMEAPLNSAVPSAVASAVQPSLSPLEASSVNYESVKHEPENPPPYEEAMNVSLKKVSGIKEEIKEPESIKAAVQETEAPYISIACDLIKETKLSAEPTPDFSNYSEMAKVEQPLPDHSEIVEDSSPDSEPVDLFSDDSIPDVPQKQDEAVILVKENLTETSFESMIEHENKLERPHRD
T4 sequence (chain, as listed by the source limits assumed): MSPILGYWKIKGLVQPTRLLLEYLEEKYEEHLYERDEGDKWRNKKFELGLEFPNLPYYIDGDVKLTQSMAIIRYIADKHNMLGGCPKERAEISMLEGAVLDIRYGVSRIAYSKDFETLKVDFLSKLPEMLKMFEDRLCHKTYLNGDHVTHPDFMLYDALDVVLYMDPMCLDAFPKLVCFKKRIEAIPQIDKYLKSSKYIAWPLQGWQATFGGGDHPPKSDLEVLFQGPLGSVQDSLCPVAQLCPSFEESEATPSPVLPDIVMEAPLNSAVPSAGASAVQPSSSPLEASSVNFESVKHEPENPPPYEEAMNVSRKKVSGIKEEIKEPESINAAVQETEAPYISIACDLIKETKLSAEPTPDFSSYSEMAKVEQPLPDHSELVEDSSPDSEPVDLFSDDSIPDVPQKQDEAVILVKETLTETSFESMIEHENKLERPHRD
T5 sequence (chain, as listed by the source limits assumed): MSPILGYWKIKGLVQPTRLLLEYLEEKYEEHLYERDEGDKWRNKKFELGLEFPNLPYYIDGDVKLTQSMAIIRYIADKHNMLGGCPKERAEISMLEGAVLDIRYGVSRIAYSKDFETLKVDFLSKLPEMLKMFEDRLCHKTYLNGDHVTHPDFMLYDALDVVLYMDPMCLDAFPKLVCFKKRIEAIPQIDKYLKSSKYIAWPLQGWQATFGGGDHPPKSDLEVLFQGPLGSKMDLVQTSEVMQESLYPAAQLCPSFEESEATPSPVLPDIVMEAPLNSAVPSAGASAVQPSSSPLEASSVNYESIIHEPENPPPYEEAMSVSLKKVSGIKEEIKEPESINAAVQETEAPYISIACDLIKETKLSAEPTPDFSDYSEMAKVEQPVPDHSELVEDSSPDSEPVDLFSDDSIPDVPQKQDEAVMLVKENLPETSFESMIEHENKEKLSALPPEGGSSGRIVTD
T6 sequence (chain, as listed by the source limits assumed): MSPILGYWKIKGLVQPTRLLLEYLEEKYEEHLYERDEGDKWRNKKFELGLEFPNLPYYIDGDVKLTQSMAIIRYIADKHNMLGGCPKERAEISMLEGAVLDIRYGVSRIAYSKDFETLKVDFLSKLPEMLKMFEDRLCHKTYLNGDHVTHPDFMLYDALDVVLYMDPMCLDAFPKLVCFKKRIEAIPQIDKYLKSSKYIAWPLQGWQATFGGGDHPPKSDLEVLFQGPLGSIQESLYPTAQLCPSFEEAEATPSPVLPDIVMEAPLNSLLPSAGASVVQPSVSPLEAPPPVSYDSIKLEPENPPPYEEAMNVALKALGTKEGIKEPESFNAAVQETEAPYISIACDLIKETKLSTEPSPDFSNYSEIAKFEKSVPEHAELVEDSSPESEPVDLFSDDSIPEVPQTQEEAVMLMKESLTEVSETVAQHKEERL

Consider Biotin-SGSGYESIKHEPENPPPYEE [peptide 16], for which the binding result in test [1] is given as “no binding (tested: about 33 mcg/ml)”.
On the same count and under the same terms, next, Biotin-SGSGKHEPENPPPYEEAMSV [peptide 17]: “no binding (tested: about 33 mcg/ml)”.

B1: H6L13 (H6FL L13FL) (antibody, human IgG1, kappa, V domains shown)
VH: QVQLVQSGAEVKKPGASVKVSCKASGYTFTSYWMHWVRQAPGQGLEWIGNINPSNGGTNYNEKFKSRATMTRDTSTSTAYMELSSLRSEDTAVYYCELGQGYWGQGTLVTVSS
VL: DIVMTQSPLSLPVTLGQPASISCRSSKSLLYKDGKTYLNWFQQRPGQSPQLLIYLMSTRASGVPDRFSGGGSGTDFTLKISRVEAEDVGVYYCQQLVEYPLTFGQGTKLEIKR
notes: Human IgG1 (L235A, G237A, EU Index) / kappa; also called H6L13 with VH CDR3 GQGY
Usually koff stands for a measure of how fast the partners let go of each other. In general, EC50 (read off the curve) refers to the midpoint of the concentration-response curve. One may read the Kd as the free concentration of one partner at which half of the binding sites on the other are occupied at equilibrium, for simple one-to-one binding. As usually defined, the kon is the second-order rate constant of association. Turning to B1, the koff in test [2] stood at 0.0138 s⁻¹; in [5] it was 0.00722 s⁻¹; in test [6], 0.0198 s⁻¹. Moreover, the “EC50 (read off the curve)” value in test [3] and in test [4] was around 0.1 µg/mL in each case. The same molecule showed a Kd in test [5] of 6.97 nM. In test [5], this molecule showed an association rate constant (kon) of 1.04e+06 M⁻¹ s⁻¹.

B2: H100L100 (antibody, V domains shown)
VH: B1 VH with G101S
VL: DIVMTQSPLSLPVTLGQPASISCRSSKSLLYKDGKTYLNWFRQRPGQSPQLLIYLMSTRASGVPDRFSGGGSGTDFTLKISRVEAEDVGVYYCQQLVEYPLTFGQGTKLEIK
notes: Full length versions of the heavy and light chains were expressed in CHO cells; H100 is H6 VH with G101S (Kabat), L100 is L13 VL with Q37R (Kabat); also called G101S/Q37R variant
In test [5], B2 gave a Kd of 0.396 nM, a koff of 0.00507 s⁻¹ and an on-rate (kon) of 1.28e+07 M⁻¹ s⁻¹.

B3: H28L13 (antibody, human IgG1, kappa, V domains shown)
VH: B1 VH with R67K, G99M
VL: B1 VL
notes: IgG1 (L235A, G237A) / kappa; CAMPATH-1H signal (1-19) left out; also called H28FL L13FL
Regarding B3, the dissociation constant (Kd) was found to be 1.11 nM in test [7]; 0.45 nM in test [11]; 1.02 nM in test [12]; 0.936 nM in test [13]; 0.34 nM in test [14]; 0.454 nM in test [15]. The “IC50 (read off the curve)” value in [8] is around 5 µg/mL. Further, the concentration for a half-maximal effect (EC50 (read off the curve)) is around 0.03 µg/mL in [9], around 0.06 µg/mL in test [10], around 0.07 µg/mL in test [3] and around 0.08 µg/mL in test [4]. Besides, the koff in test [11] turned out to be 0.00317 s⁻¹; in [12], 0.00759 s⁻¹; in test [13], 0.00389 s⁻¹; in test [15], 0.0033 s⁻¹. Further, the association rate constant (kon) was 6.97e+06 M⁻¹ s⁻¹ in test [11], 7.43e+06 M⁻¹ s⁻¹ in test [12], 4.16e+06 M⁻¹ s⁻¹ in [13] and 7.26e+06 M⁻¹ s⁻¹ in [15].

B4: H100L101 (antibody, V domains shown)
VH: B1 VH with G101S
VL: B2 VL with R42Q, Q50R
notes: Full length version expressed in CHO cells; L101 is L13 VL with Q45R (Kabat)
As to B4, in [5], the Kd was 0.329 nM, the koff was found to be 0.00429 s⁻¹ and the kon worked out at 1.3e+07 M⁻¹ s⁻¹.

B5: H20L16 (antibody, human IgG1, kappa, V domains shown)
VH: B1 VH with R67K
VL: B1 VL with L11N, A19V, Q42L
notes: IgG1 (L235A, G237A) / kappa; CAMPATH-1H signal (1-19) left out
For B5, the “EC50 (read off the curve)” value in test [16] was around 0.05 µg/mL; in test [17], around 0.07 µg/mL; in [9] it was around 0.1 µg/mL; in test [18], around 0.09 µg/mL; in test [10], around 0.08 µg/mL; in test [19], around 0.08 µg/mL. Further, the “EC50 (read off the curve)” value in [3] was around 0.1 µg/mL; in test [4], around 0.09 µg/mL. Moreover, the Kd was found to be 1.8 nM in test [7], 1.51 nM in test [12], 1.16 nM in [13] and 0.31 nM in [14]. Also, the figures for the koff in test [12] and in test [13] were 0.0108 s⁻¹ and 0.00542 s⁻¹, respectively. The figures for the kon in [12] and in test [13] were 7.17e+06 M⁻¹ s⁻¹ and 4.69e+06 M⁻¹ s⁻¹, respectively. For the same molecule, the binding result in test [20] is reported as “binds”.

B6: Hc(G95M)Lc (antibody, human IgG1, kappa, V domains shown)
VH: QVQLQQPGTELVKPGASVKLSCKASGYTFTSYWMHWVKQRPGQGLEWIGNINPSNGGTNYNEKFKSKATLTVDKSSSTAYMQLSSLTSEDSAVYYCELMQGYWGQGTLVTVSS
VL: DIVITQDELSNPVTSGESVSISCRSSKSLLYKDGKTYLNWFLQRPGQSPQLLIYLMSTRASGVSDRFSGSGSGTDFTLEISRVKAEDVGVYYCQQLVEYPLTFGAGTKLELKR
notes: also called HcLc containing the G95M mutation of the CDR H3
In [2], B6 yielded a koff of 0.000614 s⁻¹.
Biotin-SGSGVLPDIVMEAPLNSAVP [peptide 7 (biotin-SGSG-VLPDIVMEAPLNSAVP)]: the “IC50 (read off the curve)” value in [1] is around 0.9 µg/mL.
For Biotin-SGSGTPSPVLPDIVMEAPLN [peptide 6 (biotin-SGSG-TPSPVLPDIVMEAPLN)], in test [1], the binding result is given as “binds”.
